# B1: LINE1-mini (parent)
# chain: GGCAGAGCUCAACACAGCGUGGCAAAGUGGCUGUGGCUAGACUGCC
# Variants of: B1
# Assay: self-cleavage, relative activity (ratio to wild type); higher = more cleavage; in vitro, sequencing; the parent is a self-cleaving ribozyme
row,Variant,self-cleavage
1,G1U A14U,0.16
2,G1U A14C,0.03
3,G1U A14G,0.12
4,G1U A39U,0.2
5,G1U A39G,0.05
6,G1U A39C,0.09
7,G1U C13A,0.05
8,G1U C13G,0.13
9,G1U C13U,0.07
10,G1C G5U,0.02
11,G1C G5C,0.02
12,G1C G5A,0.05
13,G1U A11C,0.03
14,G1U A11G,0.02
15,G1U A11U,0.07
16,G1C U20A,0.06
17,G1C U20C,0.04
18,G1C U20G,0.05
19,G1C C3G,0.1
20,G1C C3A,0.19
21,G1C C3U,0.18
22,G1C C37G,0.02
23,G1C C37U,0.02
24,G1C C37A,0.02

row,Variant,self-cleavage
1,G1U C37G,0.03
2,G1U C37A,0.06
3,G1U C37U,0.04
4,G1U A24G,0.25
5,G1U A24U,0.32
6,G1U A24C,0.36
7,G1U A4G,0.25
8,G1U A4C,0.06
9,G1U A4U,0.22
10,G1U A25G,0.21
11,G1U A25U,0.45
12,G1U A25C,0.21
13,G1C G17U,0.02
14,G1C G17C,0.06
15,G1C G17A,0.02
16,G1C G33C,0.14
17,G1C G33A,0.03
18,G1C G33U,0.04
19,G1C U38A,0.05
20,G1C U38G,0.01
21,G1C U38C,0.06
22,G1C C46A,0.28
23,G1C C46G,0.3
24,G1C C46U,0.18

row,Variant,self-cleavage
1,G1U A12C,0.02
2,G1U A12U,0.08
3,G1U A12G,0.04
4,G1C G44A,0.06
5,G1C G44U,0.06
6,G1C G44C,0.03
7,G1C C13U,0.04
8,G1C C13A,0.05
9,G1C C13G,0.04
10,G1C C42A,0.02
11,G1C C42G,0.01
12,G1C C42U,0.04
13,G1U C3U,0.27
14,G1U C3A,0.85
15,G1U C3G,0.25
16,G1C U34G,0.02
17,G1C U34C,0.03
18,G1C U34A,0.01
19,G1U C8G,0.06
20,G1U C8A,0.08
21,G1U C8U,0.12
22,G1U C31U,0.07
23,G1U C31G,0.04
24,G1U C31A,0.07

row,Variant,self-cleavage
1,G1C G2A,0.13
2,G1C G2C,0.15
3,G1C G2U,0.08
4,G1C G30A,0.18
5,G1C G30C,0.04
6,G1C G30U,0.06
7,G1U C18G,0.06
8,G1U C18U,0.51
9,G1U C18A,0.16
10,G1C G40A,0.03
11,G1C G40U,0.02
12,G1C G40C,0.03
13,G1U C23U,0.31
14,G1U C23A,0.36
15,G1U C23G,0.24
16,G1C G36U,0.03
17,G1C G36C,0.01
18,G1C G36A,0.05
19,G1C C15G,0.03
20,G1C C15U,0.07
21,G1C C15A,0.02
22,G1C C8G,0.02
23,G1C C8U,0.07
24,G1C C8A,0.06

row,Variant,self-cleavage
1,G1C U28C,0.02
2,G1C U28G,0.07
3,G1C U28A,0.04
4,G1U A6U,0.22
5,G1U A6C,0.51
6,G1U A6G,0.07
7,G1C C10U,0.04
8,G1C C10A,0.02
9,G1C C10G,0.03
10,G1C G35U,0.03
11,G1C G35C,0.02
12,G1C G35A,0.03
13,G1C G29C,0.07
14,G1C G29U,0.14
15,G1C G29A,0.16
16,G1U,0.33
17,G1C G21A,0.42
18,G1C G21U,0.17
19,G1C G21C,0.06
20,G1C C18G,0.03
21,G1C C18U,0.05
22,G1C C18A,0.04
23,G1U A26C,0.32
24,G1U A26G,0.31

row,Variant,self-cleavage
1,G1U A26U,0.34
2,G1C U43G,0.13
3,G1C U43A,0.02
4,G1C U43C,0.03
5,G1C C45A,0.16
6,G1C C45U,0.15
7,G1C C45G,0.16
8,G1C G7U,0.03
9,G1C G7A,0.04
10,G1C G7C,0.02
11,G1C U9C,0.03
12,G1C U9G,0.02
13,G1C U9A,0.02
14,G1C G27U,0.12
15,G1C G27A,0.16
16,G1C G27C,0.14
17,G1U A16U,0.05
18,G1U A16C,0.08
19,G1U A16G,0.22
20,G1C C31U,0.04
21,G1C C31A,0.02
22,G1C C31G,0.01
23,G1U C15G,0.04
24,G1U C15A,0.08

row,Variant,self-cleavage
1,G1U C15U,0.21
2,G1U C42G,0.04
3,G1U C42A,0.07
4,G1U C42U,0.06
5,G1U A41U,0.33
6,G1U A41G,0.1
7,G1U A41C,0.05
8,G1C G19A,0.11
9,G1C G19U,0.06
10,G1C G19C,0.04
11,G1C G22C,0.19
12,G1C G22U,0.17
13,G1C G22A,0.12
14,G1C A41U,0.1
15,G1C U32A,0.02
16,G1C U32G,0.04
17,G1C U32C,0.03
18,G1C C23A,0.16
19,G1C C23U,0.07
20,G1C C23G,0.08
21,G1U C10A,0.03
22,G1U C10G,0.03
23,G1U C10U,0.08

# Reference: the RNAGym collection of RNA variant scans (doi:10.7554/elife.90254)
